In the Human Domainome abundance scans (Beltran et al. 2025) one finds abundance fitness data, which are given here for 167 variants.

± gives the uncertainty stated by the source.

The chains are these.
B1: E3 ubiquitin-protein ligase NEDD4-like, residues 539 to 589; numbered along this chain, Q96PU5 (parent)
chain: KTSLNPNDLGPLPPGWEERIHLDGRTFYIDHNSKITQWEDPRLQNPAITGP

In this data set the parent is B1. Briefly: abundance fitness (aPCA) (normalised: wild type 0, dead -1); higher = more abundant; growth selection in yeast, the domain comes from the species named. To be noted: Homo sapiens.
Take D30Y: the abundance fitness was -0.358 ± 0.087.

In the case of D30K, the abundance fitness is -0.369 ± 0.089.

With D30R, the abundance fitness is -0.553 ± 0.045.

D30I: the abundance fitness was -0.87 ± 0.082.

As for D30M, the abundance fitness is -0.753 ± 0.091.

On to D30L, for which the abundance fitness was -0.591 ± 0.053.

As to D30T, the abundance fitness is -0.716 ± 0.056.

Regarding D30G, the abundance fitness was -0.617 ± 0.049.

As to D30C, the abundance fitness is -0.166 ± 0.061.

Regarding D30V, the abundance fitness was -1.03 ± 0.049.

For D30Q, the abundance fitness was -0.424 ± 0.075.

As for D30P, the abundance fitness was -0.953 ± 0.1.

For D30F, the abundance fitness is -0.546 ± 0.17.

In the case of D30A, the abundance fitness was -0.539 ± 0.053.

As to D30N, the abundance fitness is 0.166 ± 0.049.

Consider D30H, for which the abundance fitness amounted to 0.125 ± 0.092.

In the case of D30S, the abundance fitness is -0.32 ± 0.053.

Take D30E: the abundance fitness is -0.24 ± 0.075.

L43N: the abundance fitness is -0.183 ± 0.084.

As to L43V, the abundance fitness was -0.088 ± 0.071.

With L43E, the abundance fitness is -0.042 ± 0.073.

For L43F, the abundance fitness was -0.104 ± 0.087.

For the variant L43I, the abundance fitness was -0.256 ± 0.084.

For the variant L43D, the abundance fitness is -0.139 ± 0.1.

On to L43M, for which the abundance fitness was -0.153 ± 0.073.

Consider L43T, for which the abundance fitness was -0.069 ± 0.066.

Consider L43A, for which the abundance fitness came to 0.007 ± 0.071.

In the case of L43P, the abundance fitness was -0.089 ± 0.079.

As for L43Q, the abundance fitness was -0.144 ± 0.091.

Take L43R: the abundance fitness was -0.116 ± 0.056.

Consider L43G, for which the abundance fitness is -0.086 ± 0.05.

On to L43Y, for which the abundance fitness is -0.192 ± 0.1.

Turning to L43H, the abundance fitness is -0.131 ± 0.12.

In the case of L43W, the abundance fitness is -0.333 ± 0.073.

With L43C, the abundance fitness is -0.11 ± 0.078.

As to Q37S, the abundance fitness is -0.014 ± 0.049.

With Q37D, the abundance fitness was -0.521 ± 0.089.

For the variant Q37Y, the abundance fitness is -0.33 ± 0.096.

Take Q37F: the abundance fitness is -0.358 ± 0.12.

As to Q37V, the abundance fitness is -0.397 ± 0.041.

As for Q37A, the abundance fitness was -0.443 ± 0.065.

Regarding Q37K, the abundance fitness is -0.357 ± 0.059.

For the variant Q37M, the abundance fitness was -0.231 ± 0.079.

As for Q37W, the abundance fitness was -0.564 ± 0.065.

For the variant Q37G, the abundance fitness is -0.723 ± 0.047.

As for Q37C, the abundance fitness is -0.207 ± 0.094.

With Q37E, the abundance fitness is -0.742 ± 0.059.

Take Q37H: the abundance fitness turned out to be 0.068 ± 0.11.

Q37T: the abundance fitness was 0.21 ± 0.067.

For Q37L, the abundance fitness was -0.703 ± 0.061.

As for Q37N, the abundance fitness is -0.511 ± 0.11.

With T36L, the abundance fitness is -0.558 ± 0.06.

In the case of T36G, the abundance fitness is -0.224 ± 0.048.

As to T36H, the abundance fitness was 0.032 ± 0.1.

With T36E, the abundance fitness is -0.119 ± 0.049.

Take T36F: the abundance fitness was -0.261 ± 0.083.

T36R: the abundance fitness is -0.291 ± 0.05.

For T36M, the abundance fitness was -0.208 ± 0.068.

Regarding T36V, the abundance fitness was -0.263 ± 0.045.

Turning to T36C, the abundance fitness stood at 0.086 ± 0.07.

On to T36Q, for which the abundance fitness is -0.336 ± 0.077.

Take T36W: the abundance fitness is -0.491 ± 0.056.

For T36N, the abundance fitness is -0.469 ± 0.16.

Regarding T36P, the abundance fitness is -0.608 ± 0.09.

Turning to T36A, the abundance fitness was -0.341 ± 0.045.

N45F: the abundance fitness is -0.634 ± 0.12.

Turning to N45M, the abundance fitness was -0.163 ± 0.083.

With N45T, the abundance fitness was -0.007 ± 0.066.

N45Y: the abundance fitness is -0.157 ± 0.1.

For the variant N45E, the abundance fitness was -0.046 ± 0.053.

Consider N45C, for which the abundance fitness is -0.103 ± 0.084.

Take N45W: the abundance fitness is -0.331 ± 0.064.

For the variant N45A, the abundance fitness was -0.028 ± 0.074.

For the variant N45Q, the abundance fitness is -0.102 ± 0.063.

For N45D, the abundance fitness is -0.213 ± 0.076.

Turning to N45S, the abundance fitness is -0.011 ± 0.044.

For the variant N45H, the abundance fitness is -0.068 ± 0.063.

For the variant N45K, the abundance fitness amounted to 0.029 ± 0.047.

As for N45V, the abundance fitness is -0.106 ± 0.058.

Turning to N45R, the abundance fitness is 0.003 ± 0.059.

N45G: the abundance fitness was -0.045 ± 0.064.

For the variant N45L, the abundance fitness was -0.094 ± 0.04.

Take N45I: the abundance fitness was -0.099 ± 0.088.

For the variant I29R, the abundance fitness was -0.271 ± 0.046.

On to I29A, for which the abundance fitness is -0.299 ± 0.065.

On to I29T, for which the abundance fitness is -0.166 ± 0.059.

Turning to I29Y, the abundance fitness is -0.017 ± 0.098.

Take I29H: the abundance fitness was -0.782 ± 0.17.

Take I29K: the abundance fitness is -0.027 ± 0.065.

For the variant I29D, the abundance fitness was -0.422 ± 0.082.

For the variant I29W, the abundance fitness was -0.332 ± 0.059.

For the variant I29N, the abundance fitness is -0.378 ± 0.11.

As for I29C, the abundance fitness was -0.124 ± 0.075.

With I29G, the abundance fitness is -0.482 ± 0.042.

Regarding I29E, the abundance fitness was -0.105 ± 0.055.

On to I29S, for which the abundance fitness was -0.318 ± 0.056.

Turning to I29M, the abundance fitness was -0.141 ± 0.075.

For the variant I29Q, the abundance fitness was -0.176 ± 0.051.

On to I29L, for which the abundance fitness was -0.175 ± 0.059.

In the case of I29V, the abundance fitness stood at 0.013 ± 0.051.

Regarding P41K, the abundance fitness was -0.868 ± 0.14.

Consider P41H, for which the abundance fitness is -1.08 ± 0.26.

With P41G, the abundance fitness is -0.742 ± 0.049.

As to P41Y, the abundance fitness is -1.15 ± 0.28.

P41A: the abundance fitness is -0.947 ± 0.078.

On to P41T, for which the abundance fitness is -0.875 ± 0.079.

Consider P41N, for which the abundance fitness was -0.86 ± 0.17.

For the variant P41R, the abundance fitness is -0.758 ± 0.057.

Turning to P41V, the abundance fitness was -0.848 ± 0.052.

In the case of P41S, the abundance fitness is -0.827 ± 0.063.

P41W: the abundance fitness is -1.11 ± 0.067.

On to P41D, for which the abundance fitness is -0.98 ± 0.17.

Turning to P41M, the abundance fitness is -0.367 ± 0.098.

Regarding P41F, the abundance fitness is -1.1 ± 0.1.

For P41E, the abundance fitness was -0.718 ± 0.082.

Consider P41Q, for which the abundance fitness is -1.14 ± 0.13.

Take P41I: the abundance fitness was -1.28 ± 0.13.

P41C: the abundance fitness was -0.672 ± 0.12.

On to H31I, for which the abundance fitness was -0.017 ± 0.075.

Turning to H31D, the abundance fitness was -0.601 ± 0.095.

Take H31E: the abundance fitness is -0.243 ± 0.042.

Turning to H31W, the abundance fitness is -0.428 ± 0.077.

As for H31Y, the abundance fitness was -0.414 ± 0.1.

H31S: the abundance fitness was -0.08 ± 0.06.

For the variant H31C, the abundance fitness is -0.149 ± 0.051.

With H31G, the abundance fitness was -0.243 ± 0.043.

As to H31L, the abundance fitness is -0.04 ± 0.044.

Take H31V: the abundance fitness is -0.07 ± 0.053.

On to H31M, for which the abundance fitness was determined as 0 ± 0.043.

Take H31A: the abundance fitness was -0.174 ± 0.052.

For the variant H31R, the abundance fitness was -0.156 ± 0.052.

H31F: the abundance fitness was -0.479 ± 0.12.

H31Q: the abundance fitness is -0.224 ± 0.071.

As for H31T, the abundance fitness was 0.065 ± 0.054.

Regarding H31K, the abundance fitness is 0.11 ± 0.072.

For the variant F27G, the abundance fitness is -0.197 ± 0.047.

F27R: the abundance fitness is -0.163 ± 0.046.

Turning to F27Q, the abundance fitness came out at 0.042 ± 0.084.

On to F27P, for which the abundance fitness is -0.357 ± 0.058.

In the case of F27A, the abundance fitness was -0.112 ± 0.047.

As for F27S, the abundance fitness was -0.092 ± 0.051.

With F27N, the abundance fitness was -0.201 ± 0.1.

On to F27W, for which the abundance fitness was -0.346 ± 0.059.

F27I: the abundance fitness was -0.163 ± 0.098.

As for F27D, the abundance fitness was -0.27 ± 0.07.

Consider F27V, for which the abundance fitness was -0.188 ± 0.045.

Take F27C: the abundance fitness is -0.056 ± 0.076.

As to F27K, the abundance fitness was -0.002 ± 0.072.

F27E: the abundance fitness is 0.175 ± 0.07.

Take F27L: the abundance fitness was -0.039 ± 0.047.

For the variant F27T, the abundance fitness is -0.089 ± 0.065.

In the case of I35D, the abundance fitness is -0.128 ± 0.068.

I35F: the abundance fitness was -0.16 ± 0.086.

With I35C, the abundance fitness amounted to 0.002 ± 0.064.

On to I35Q, for which the abundance fitness was determined as 0.029 ± 0.05.

On to I35T, for which the abundance fitness came out at 0.04 ± 0.059.

Take I35M: the abundance fitness is -0.239 ± 0.078.

For I35S, the abundance fitness was -0.079 ± 0.06.

Turning to I35L, the abundance fitness was -0.035 ± 0.047.

With I35R, the abundance fitness was 0.048 ± 0.042.

For the variant I35G, the abundance fitness was -0.301 ± 0.057.

Take I35V: the abundance fitness is -0.163 ± 0.058.

Consider I35K, for which the abundance fitness was 0.065 ± 0.074.

On to I35A, for which the abundance fitness was 0.008 ± 0.061.

In the case of I35N, the abundance fitness is -0.042 ± 0.091.

Take I35Y: the abundance fitness is -0.291 ± 0.091.

With E39Y, the abundance fitness is -0.412 ± 0.073.
